Laboratory results: US20210063414A1, “METHODS FOR PREVENTING AND/OR TREATING BONE LOSS CONDITIONS BY MODULATING IRISIN” (Dana-Farber Cancer Institute, Inc., priority 2018, published 2021)

Assays:
Assay in all cases: Crosslinking/co-immunoprecipitation/mass spectrometry (TMT quantitative proteomics) to identify irisin receptors
Format in all cases: binding
[1] = target: T1, MLO-Y4 cell surface proteins (Mus musculus, UniProt P60843); settings: co-precipitated protein Eif4a1 (IF4A1_MOUSE)
T1 construct: endogenous in cells; host or cells: MLO-Y4
T1 sequence (P60843 whole entry): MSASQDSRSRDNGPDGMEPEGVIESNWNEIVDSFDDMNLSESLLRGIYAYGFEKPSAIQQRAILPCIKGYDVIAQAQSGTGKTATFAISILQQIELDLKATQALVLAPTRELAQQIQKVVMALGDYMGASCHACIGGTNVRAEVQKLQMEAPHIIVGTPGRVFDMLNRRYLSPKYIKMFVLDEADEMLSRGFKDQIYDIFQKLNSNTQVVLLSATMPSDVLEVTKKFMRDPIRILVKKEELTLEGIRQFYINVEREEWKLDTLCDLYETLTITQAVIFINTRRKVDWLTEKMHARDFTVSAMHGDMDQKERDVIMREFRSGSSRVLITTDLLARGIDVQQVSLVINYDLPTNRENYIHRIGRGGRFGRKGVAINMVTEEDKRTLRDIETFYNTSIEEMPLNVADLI
Procedure: (§1) MLO-Y4 cells were seeded on 30×150 mm type-I collagen coated dishes as described in cell culture experiment. At 60% cell density, medium was switched to FreeStyle™ 293 Expression medium. After 4 hours incubation, the cells were chilled on ice for 10 minutes, followed by treatment of 10 nM his-tag irisin or his-tag adipsin for 20 minutes. The cells were then incubated with 1.5 mM DTSSP for 30 minutes on ice to do cross-linking, after washing with 15 ml cold PBS twice. The cross-linking was quenched by addition of a final concentration of 20 mM Tris-pH 7.5. The cells were then harvested and homogenized in 1 ml RIPA buffer containing proteaseinhibitor cocktailand phosphatase-inhibitor cocktail. Whole-cell lysates were homogenized by 10 times passages through a 22G needle fitted to a 3 ml syringe. Homogenized samples were rotated gently in cold room for 20 minutes followed by 15,000×g centrifugation for 10 minutes. After addition of a final concentration of 10 mM imidazole, supernatants were incubated with 100 μl Ni-NTA agarose for 1 hour. After centrifugation at 500×g for 1 minute, the supernatants were aspirated and 1 ml cold RIPA buffer containing 10 mM imidazole were added to the agarose. After 10 minutes rotation in cold room, the supernatants were aspirated and 1 ml cold RIPA buffer containing 30 mM imidazole were added to the agarose. After repeating the washing 3 times, 0.8 ml RIPA buffer containing 250 mM imidazole was added and the agarose was gently rotated in a cold room for 20 minutes. After centrifugation at 1000×g for 2 minutes, the supernatants were transferred to 1.5 ml tube and incubated with 100 μl 0.2% sodium deoxycholate and 100 μl 10% trichloroacetic acid in ice for 1 hour. After centrifugation at 12,000×g for 10 minutes at 4° C., the supernatants were removed and 1 ml cold acetone was added to the pellets followed by vortexing for 10 seconds. After one more washing with cold acetone, the pellets were dried at 37° C., and 39 μl PBS and 13 μl 4×NuPAGE LDS were added to the pellets with a final concentration of 5 mM DTT. Solubilized proteins were incubated at 65° C. for 20 minutes followed by incubation with a final concentration of 14 mM iodoacetamide for 45 minutes in the dark. 38 μl samples were loaded to 4-12% gradient SDS-PAGE for separation followed by Coomassie Blue staining. The gels were submitted to quantitative proteomics.
(§2) For in-gel digestions, gels were stained with Coomassie Blue and were excised into 8 equal segments for control and irisin lanes. Gel pieces were destained and dehydrated with 100% acetonitrile, vacuumed dried, and digested in 25 mM HEPES (pH 8.5) with 500 ng sequencing grade trypsin (Promega) and incubated for an overnight at 37° C. (Shevchenko et al. (1996) Anal. Chem. 68:850-858). Digests were treated with 1% formic acid and purified using C18 Stage-Tips as previously described (Rappsilber et al. (2007) Nat. Protoc. 2:1896-1906). Peptides were eluted with 70% acetonitrile and 1% formic acid, then dried using a speedvac. Isobaric labeling of digested peptides was accomplished using 6-plex tandem mass tag (TMT) reagents (Thermo Fisher Scientific, Rockford, Ill.). Reagents, 5.0 mg, were dissolved in 252 μl acetonitrile (ACN) and 5 μl of the solution was added to the digested peptides dissolved in 25 μl of 200 mM HEPES, pH 8.5. After 1 hour at room temperature, the reaction was quenched by adding 1 μl of 5% hydroxylamine. Labeled peptides were combined and acidified prior to C18 Stage-Tips desalting.
(§3) All LC-MS/MS experiments were performed on an Orbitrap Fusion™ Lumos mass spectrometer (Thermo Fisher Scientific, San Jose, Calif., USA) coupled with a Proxeon EASY-nLC™ 1200 LC pump (Thermo Fisher Scientific). Peptides were separated on a 100 μm inner diameter microcapillary column packed with 35 cm of Accucore™ C18 resin (1.8 μm, 100 Å, Thermo Fisher Scientific). […]

[2] = target: T2, MLO-Y4 cell surface proteins (Mus musculus, UniProt P62737); settings: co-precipitated protein Acta2 (ACTA_MOUSE)
T2 construct: endogenous in cells; host or cells: MLO-Y4
Procedure: as §1, §2, §3

[3] = target: T3, MLO-Y4 cell surface proteins (Mus musculus, UniProt G3X9C2); settings: co-precipitated protein Nccrp1 (FBX50_MOUSE)
T3 construct: endogenous in cells; host or cells: MLO-Y4
T3 sequence (G3X9C2 1-266): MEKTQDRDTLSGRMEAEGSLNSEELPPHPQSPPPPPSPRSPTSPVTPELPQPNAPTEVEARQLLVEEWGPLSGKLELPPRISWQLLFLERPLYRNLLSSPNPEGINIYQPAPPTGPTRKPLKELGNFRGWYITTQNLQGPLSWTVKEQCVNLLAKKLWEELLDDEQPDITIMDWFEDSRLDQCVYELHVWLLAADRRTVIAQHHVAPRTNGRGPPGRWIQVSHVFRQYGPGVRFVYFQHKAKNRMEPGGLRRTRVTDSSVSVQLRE
Procedure: as §1, §2, §3

[4] = target: T4, MLO-Y4 cell surface proteins (Mus musculus, UniProt Q6ZQ93); settings: co-precipitated protein Usp34 (UBP34_MOUSE)
T4 construct: endogenous in cells; host or cells: MLO-Y4
Procedure: as §1, §2, §3

[5] = target: T5, MLO-Y4 cell surface proteins (Mus musculus, UniProt Q99KR7); settings: co-precipitated protein Ppif (PPIF_MOUSE)
T5 construct: endogenous in cells; host or cells: MLO-Y4
T5 sequence (Q99KR7 30-206): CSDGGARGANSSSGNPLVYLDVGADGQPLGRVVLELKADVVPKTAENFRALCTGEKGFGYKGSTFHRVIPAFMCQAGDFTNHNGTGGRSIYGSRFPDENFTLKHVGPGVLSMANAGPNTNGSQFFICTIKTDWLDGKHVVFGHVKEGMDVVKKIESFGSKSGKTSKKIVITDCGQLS
Procedure: as §1, §2, §3

[6] = target: T6, MLO-Y4 cell surface proteins (Mus musculus, UniProt E9Q0C6); settings: co-precipitated protein Gm14569 (E9Q0C6_MOUSE)
T6 construct: endogenous in cells; host or cells: MLO-Y4
T6 sequence (E9Q0C6 whole entry): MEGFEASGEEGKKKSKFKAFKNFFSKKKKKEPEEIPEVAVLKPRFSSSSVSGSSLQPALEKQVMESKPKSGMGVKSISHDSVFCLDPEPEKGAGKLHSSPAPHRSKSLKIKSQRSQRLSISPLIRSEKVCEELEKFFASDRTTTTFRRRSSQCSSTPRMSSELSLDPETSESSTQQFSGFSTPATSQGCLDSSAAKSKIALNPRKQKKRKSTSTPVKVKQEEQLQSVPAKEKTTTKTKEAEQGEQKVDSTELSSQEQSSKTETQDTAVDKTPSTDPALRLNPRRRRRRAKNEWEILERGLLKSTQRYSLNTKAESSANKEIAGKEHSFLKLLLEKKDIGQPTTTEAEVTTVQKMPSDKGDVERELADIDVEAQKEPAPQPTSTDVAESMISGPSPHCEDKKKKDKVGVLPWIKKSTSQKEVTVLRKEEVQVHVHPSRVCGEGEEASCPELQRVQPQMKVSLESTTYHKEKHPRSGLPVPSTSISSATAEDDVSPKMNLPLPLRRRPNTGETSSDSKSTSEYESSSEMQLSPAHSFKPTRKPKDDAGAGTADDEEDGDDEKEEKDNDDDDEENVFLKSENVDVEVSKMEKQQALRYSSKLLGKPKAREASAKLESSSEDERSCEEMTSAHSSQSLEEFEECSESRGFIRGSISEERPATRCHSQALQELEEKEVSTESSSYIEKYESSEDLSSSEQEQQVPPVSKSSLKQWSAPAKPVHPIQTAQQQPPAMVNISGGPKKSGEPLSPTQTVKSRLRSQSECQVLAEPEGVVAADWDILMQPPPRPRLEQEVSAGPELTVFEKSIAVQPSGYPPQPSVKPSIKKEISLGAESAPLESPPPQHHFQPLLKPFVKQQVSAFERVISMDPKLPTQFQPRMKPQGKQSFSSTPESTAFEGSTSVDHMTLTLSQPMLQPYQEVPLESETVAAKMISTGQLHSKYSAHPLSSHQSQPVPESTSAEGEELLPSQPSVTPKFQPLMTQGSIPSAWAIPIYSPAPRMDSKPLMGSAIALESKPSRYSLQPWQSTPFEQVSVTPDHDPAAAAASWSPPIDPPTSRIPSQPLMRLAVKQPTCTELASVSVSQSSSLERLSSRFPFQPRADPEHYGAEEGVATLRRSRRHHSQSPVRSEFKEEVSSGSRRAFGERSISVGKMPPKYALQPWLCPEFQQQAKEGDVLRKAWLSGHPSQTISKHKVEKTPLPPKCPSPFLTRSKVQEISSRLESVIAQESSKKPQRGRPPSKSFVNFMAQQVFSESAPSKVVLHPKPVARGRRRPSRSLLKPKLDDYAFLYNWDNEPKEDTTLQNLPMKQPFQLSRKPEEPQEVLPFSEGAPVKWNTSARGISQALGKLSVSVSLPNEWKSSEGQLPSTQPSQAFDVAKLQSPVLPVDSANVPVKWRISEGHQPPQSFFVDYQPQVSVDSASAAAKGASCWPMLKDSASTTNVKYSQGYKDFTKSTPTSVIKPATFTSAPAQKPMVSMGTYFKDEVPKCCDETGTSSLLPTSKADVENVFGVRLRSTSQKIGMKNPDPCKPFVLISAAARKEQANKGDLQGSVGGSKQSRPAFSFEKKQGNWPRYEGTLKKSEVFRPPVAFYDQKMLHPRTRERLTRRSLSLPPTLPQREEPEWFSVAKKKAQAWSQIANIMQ
Procedure: as §1, §2, §3

[7] = target: T7, MLO-Y4 cell surface proteins (Mus musculus, UniProt Q9CXD6); settings: co-precipitated protein Mcur1 (MCUR1_MOUSE)
T7 construct: endogenous in cells; host or cells: MLO-Y4
T7 sequence (Q9CXD6 1-340): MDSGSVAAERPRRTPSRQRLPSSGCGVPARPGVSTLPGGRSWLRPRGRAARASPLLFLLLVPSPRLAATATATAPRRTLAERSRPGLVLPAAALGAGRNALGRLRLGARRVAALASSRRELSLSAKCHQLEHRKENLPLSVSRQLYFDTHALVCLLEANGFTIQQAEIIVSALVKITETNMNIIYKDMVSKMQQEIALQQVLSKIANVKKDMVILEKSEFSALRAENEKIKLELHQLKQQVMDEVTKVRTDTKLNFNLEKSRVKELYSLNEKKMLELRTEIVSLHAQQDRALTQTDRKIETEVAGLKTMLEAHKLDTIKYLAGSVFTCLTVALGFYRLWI
Procedure: as §1, §2, §3

B1: irisin: secreted cleaved form of FNDC5; recombinant human/mouse irisin with C-terminal his tag produced in HEK293 cells (protein)
chain: DSPSAPVNVTVRHLKANSAVVSWDVLEDEVVIGFAISQQKKDVRMLRFIQEVNTTTRSCALWDLEEDTEYIVHVQAISIQGQSPASEPVLFKTPREAEKMASKNKDEVTMKE
modifications: left off: small tags and cut ends
notes: secreted cleaved form of FNDC5; recombinant human/mouse irisin with C-terminal his tag produced in HEK293 cells
B1 was tested, and the TMT signal-to-noise ratio [1] was 17.0483, the “irisin/adipsin TMT signal-to-noise ratio” value [1] was 0.125 and the TMT signal-to-noise ratio [2] was 107.601. The “irisin/adipsin TMT signal-to-noise ratio” value [2] was 0.298, the TMT signal-to-noise ratio [3] was 0 and the “irisin/adipsin TMT signal-to-noise ratio” value [3] was 0.000. The TMT signal-to-noise ratio [4] was 98.0506, the “irisin/adipsin TMT signal-to-noise ratio” value [4] was 0.094 and the TMT signal-to-noise ratio [5] was 49.7858. The “irisin/adipsin TMT signal-to-noise ratio” value [5] was 0.199, the TMT signal-to-noise ratio [6] was 8.647 and the “irisin/adipsin TMT signal-to-noise ratio” value [6] was 0.039. For the same molecule, the TMT signal-to-noise ratio [7] was 951.207 and the “irisin/adipsin TMT signal-to-noise ratio” value [7] was 0.583.
